{
  "source": "patent US8722043B2",
  "about": "“Induction of p53 expression by neutralization of neuropilin-2 for the treatment of cancers” (Diaclone, priority 2008, dated 2014)",
  "molecules": {"B1": {"name": "ITAC-B1: anti-human neuropilin-2 murine monoclonal antibody, VH SEQ ID No. 2, VL SEQ ID No. 4, produced by hybridoma CNCM 1-4054 (antibody, listed as Mus musculus, V domains shown)", "VH": "EVKLQESGAELVKPGASVKLSCTVSGFNIKDTYIHWVIQRPEQGLEWLGRIDPANGNTKYDPKFQGKATITADTSSNTAYLQLSSLTSEDTAVYYCARWAVVGDYWGQGTTLTVSS", "VL": "YCDHPLYKFLHVSAGDRVTITCKASQSVSDDVAWYQQKPGQSPKLLIYSASNRYTGVPDRFTGSGYGTDFTFTISTVQPEDLAVYFCQQDYSSPTFGSGTKLELK"}},
  "key": {"[1]": {"biological_target": "T1, human neuropilin-2 at the membrane surface (HT29-NRP-2, P815-NRP-2 cells) (Homo sapiens, UniProt O60462)", "T1 construct": "expressed in transfected cells; host or cells: HT29 (human colorectal cancer) and P815 (murine mastocytoma) cells, G418-selected", "T1 sequence (O60462 21-931)": "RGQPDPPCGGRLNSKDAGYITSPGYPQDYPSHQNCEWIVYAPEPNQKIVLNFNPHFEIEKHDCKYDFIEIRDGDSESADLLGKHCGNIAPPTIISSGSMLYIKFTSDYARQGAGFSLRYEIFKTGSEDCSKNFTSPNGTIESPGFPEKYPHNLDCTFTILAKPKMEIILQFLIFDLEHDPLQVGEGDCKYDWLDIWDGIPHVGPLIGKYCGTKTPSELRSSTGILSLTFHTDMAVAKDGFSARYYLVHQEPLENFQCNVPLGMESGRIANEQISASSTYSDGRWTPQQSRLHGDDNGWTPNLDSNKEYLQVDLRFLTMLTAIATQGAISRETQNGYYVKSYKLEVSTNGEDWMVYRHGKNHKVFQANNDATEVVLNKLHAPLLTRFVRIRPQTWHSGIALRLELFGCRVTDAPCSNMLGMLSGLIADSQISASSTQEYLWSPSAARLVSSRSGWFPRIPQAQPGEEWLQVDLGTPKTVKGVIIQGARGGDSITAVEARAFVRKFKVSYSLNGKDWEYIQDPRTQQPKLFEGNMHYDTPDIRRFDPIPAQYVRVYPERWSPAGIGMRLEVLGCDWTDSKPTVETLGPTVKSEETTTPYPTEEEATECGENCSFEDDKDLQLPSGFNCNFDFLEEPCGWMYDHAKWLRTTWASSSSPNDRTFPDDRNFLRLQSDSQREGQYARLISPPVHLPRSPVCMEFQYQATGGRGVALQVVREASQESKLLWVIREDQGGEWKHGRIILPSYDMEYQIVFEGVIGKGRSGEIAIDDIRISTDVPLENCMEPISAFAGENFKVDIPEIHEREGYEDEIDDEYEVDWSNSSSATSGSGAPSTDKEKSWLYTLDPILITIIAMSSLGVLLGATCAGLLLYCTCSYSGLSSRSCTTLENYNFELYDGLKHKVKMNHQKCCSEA", "assay": "Flow cytometry membrane labelling of cells expressing or not expressing NRP-2", "format": "binding", "settings": "5 μg/ml antibody, 15 minutes at 4° C.; HT29, HT29-NRP-2, P815, P815-NRP-2 cells", "experimental": "The ITAC-B1 clone was deposited, according to the Treaty of Budapest, with the CNCM (Collection Nationale des Microorganismes [French National Microorganism Collection], Institut Pasteur, 25 rue du Docteur Roux, 75724 Paris Cedex 15, France) on 30 Jul. 2008 under the deposit number CNCM 1-4054. In order to characterize the ITAC-B1 and ITAC-B2 monoclonal antibodies, membrane labelling was carried out by flow cytometry by bringing 200 000 HT29, HT29-NRP-2, P815 or P815-NRP-2 cells into contact with 5 μg/ml of ITAC-B1 or of ITAC-B2, for 15 minutes at 4° C. A goat anti-mouse secondary antibody coupled to FITC was then incubated for 15 minutes in the dark, at 4° C., before reading by flow cytometry. The results of the flow cytometry analysis obtained for ITAC-B1 are represented in FIG. 2.\nFor each of the panels of FIG. 2, the number of events (number of cells) is indicated on a y-axis, the fluorescence intensity (corresponding to the labelling of the cells with the ITAC-B1 antibody) is represented on the x-axis. Panels A and C (P815+ITAC-B1 and HT29ctrl+ITAC-B1) of FIG. 2 represent the results obtained by flow cytometry with the control cells, while panels B and D (P815-NRP-2+ITAC-B1 and HT29-NRP-2+ITAC-B1) represent the results obtained with cells expressing NRP-2 at their membrane surface. […]"}, "[2]": {"system": "HT29ctrl cells", "assay": "Annexin V-APC apoptosis test", "format": "cell-based, human", "settings": "0.5, 1 and 5 μg/ml; 16 hours", "experimental": "In order to determine the ability of the ITAC-B1 antibody to induce apoptosis of tumour cells expressing NRP-2, an in vitro Annexin V-APC apoptosis test was carried out (BD Pharmingen, San Diego, Calif.). This test is based on the externalization of phosphatidylserin by apoptotic cells and on the binding of Annexin V-APC to this molecule.\n1 ml of DMEM medium containing 10% of inactivated FCS and 100 000 HT29-NRP-2 cells or 100 000 HT29ctrl cells were seeded, per well, into a 24-well Nunc plate. After adhesion of the cells (3 hours), three concentrations of ITAC-B anti-NRP-2 antibody (0.5 μg/ml, 1 μg/ml and 5 μg/ml) were tested in various wells. In parallel, “cells alone” controls were carried out, as were negative controls (anti-human mouse IgG1 antibody (BZ1) at the same concentrations as the ITAC-B1 antibody).\nAfter incubation for 16 hours, the culture supernatant was drawn off and 500 μl of trypsin-EDTA were added to each well and left in contact for 10 minutes. When the cells began to detach, 500 μl of DMEM medium-10% FCS were added per well. […]\nFor each of the panels of FIG. 12, the number of events (number of cells) is indicated on the y-axis and the fluorescence intensity (corresponding to the labelling of the cells with the Annexin V-APC) is represented on the x-axis. […]"}},
  "data": [
    {"molecule": "B1", "values": [
      {"measurement": "labelling of cells expressing NRP-2 versus cells not expressing NRP-2", "setting": "[1]", "result": "specifically recognize the neuropilin-2 present at the membrane surface"},
      {"measurement": "apoptosis (Annexin V-APC labelling)", "setting": "[2]", "result": "does not bring about the apoptosis of cells not expressing NRP-2"}
    ]}
  ]
}
